Experimental data from patent US20240238445A1, “INHIBITORS AND USES THEREOF” (NEURACLE SCIENCE CO., LTD., priority 2021, published 2024).
Each block holds one molecule with its values, some of them ahead of it.

Legend:
[1] = target: binding of FAM19A5 protein to full-length ectodomain of the LRRC4B protein (amino acids 36-576 of SEQ ID NO: 2) (Homo sapiens, UniProt Q7Z5A7); assay: Competitive inhibition assay, plate coated with full-length ectodomain of LRRC4B (amino acids 36-576); settings: for inhibition of interaction between FAM19A5 and the coated LRRC4B protein fragments (in words): statement covers both coats, LRRC4B (36-576) and LRRC4B (453-576)
Protocol: Next, to further assess the role that the binding domain of the LRRC4B protein has on the interaction between FAM19A5 protein and members of the LRRC4 protein family, a competitive inhibition assay was used to determine whether different LRRC4B deletion constructs from Example 2 could inhibit the binding of FAM19A5 to the full-length ectodomain of the LRRC4B protein (i.e., amino acids 36-576 of SEQ ID NO: 2; SEQ ID NO: 5). Briefly, 100 nM of the full-length ectodomain of the LRRC4B protein was used to coat a plate, and then recombinant FAM19A5 protein (5 ng/mL) was added to the plate in combination with the following LRRC4B deletion constructs (increasing concentrations): (1) LRRC4B (453-576) (i.e., construct #11 in Table 6); (2) LRRC4B (453-576) mutant (comprises alanine substitutions at positions 488 and 489 of SEQ ID NO: 2; SEQ ID NO: 16); (3) LRRC4B (484-576) (i.e., construct #12 in Table 6); (4) LRRC4B (482-576); (5) LRRC4B (482-497); and (6) LRRC4B (498-576). The plates were incubated at 37° C., and then, the amount of FAM19A5 bound to the coated LRRC4B ectodomain protein was measured using HRP-conjugated anti-FAM19A5 (1-65) antibody.
As described in Example 3, there appeared to be much similarity in the binding domains of the different members of the LRRC4 family. […] Then, recombinant FAM19A5 protein (5 ng/mL) was added in combination with one of the following: (i) LRRC4B (484-576) protein fragment, (ii) LRRC4B (453-576, AA) protein fragment, and (iii) synthetic FB-20 peptide. The plates were incubated at 37° C., and then, the amount of FAM19A5 protein bound to the coated LRRC4, LRRC4B, or LRRC4C proteins was measured using anti-FAM19A5 (1-65) antibody.
(§1) Next, to assess whether polypeptides comprising the binding domains of LRRC4 or LRRC4C proteins can have similar inhibitory effects on LRRC4B protein binding, the following synthetic peptides were constructed: (1) FBC4-23 (contains the binding domain of the LRRC4 protein, i.e., YSFFTTVTVETTE); and (2) FBC4C-23 (contains the binding domain of the LRRC4C protein, i.e., FSYFSTVTVETME). Then, the ability of the peptides to inhibit the binding of LRRC4 protein family members to FAM19A5 protein was assessed using a competitive inhibition assay. Briefly, plates were coated with 100 nM of either LRRC4B protein fragment #1 (amino acids 36-576 of SEQ ID NO: 2; SEQ ID NO: 5) or LRRC4B protein fragment #2 (amino acids 453-576 of SEQ ID NO: 2; SEQ ID NO: 7). Then, recombinant FAM19A5 protein (5 ng/ml for plates coated with LRRC4B fragment #1; and 1 ng/mL for plates coated with LRRC4B fragment #2) was added to the plates in combination with 20 nM of the FBC4-23, FBC4C-23, and FB-20 peptides. The plates were incubated at 37° C. and then, the amount of FAM19A5 protein bound to the coated LRRC4B protein fragments was assessed using HRP-conjugated anti-FAM19A5 (1-65) antibody.
Next, to determine the minimal sequence required to inhibit the interaction of FAM19A5 and members of the LRRC4 protein family, ten FB-20 peptide variants were constructed by serially deleting one or more amino acids from the N-terminus or C-terminus of the FB-20 peptide. Then, a competitive inhibition assay was used to assess the ability of the different FB-20 peptide variants to inhibit the interaction between FAM19A5 and LRRC4B protein. Again, plates were coated with 100 nM of either LRRC4B protein fragment #1 (amino acids 36-576 of SEQ ID NO: 2; SEQ ID NO: 5) or LRRC4B protein fragment #2 (amino acids 453-576 of SEQ ID NO: 2; SEQ ID NO: 7). Then, recombinant FAM19A5 protein (5 ng/ml for plates coated with LRRC4B fragment #1; and 1 ng/mL for plates coated with LRRC4B fragment #2) was added to the plates in combination with 20 nM of the different peptides described above. After incubating the plates at 37° C., the amount of FAM19A5 protein bound to the coated LRRC4B protein fragments was assessed using HRP-conjugated anti-FAM19A5 (1-65) antibody. […]

[2] = target: binding of FAM19A5 protein to LRRC4B (amino acids 453-576)-hFc (Homo sapiens, UniProt Q7Z5A7); assay: Competitive inhibition assay, plate coated with LRRC4B (amino acids 453-576)-hFc, peptides at 20 nM
From the text: as §1
Next, to determine the minimal sequence required to inhibit the interaction of FAM19A5 and members of the LRRC4 protein family, ten FB-20 peptide variants were constructed by serially deleting one or more amino acids from the N-terminus or C-terminus of the FB-20 peptide. Then, a competitive inhibition assay was used to assess the ability of the different FB-20 peptide variants to inhibit the interaction between FAM19A5 and LRRC4B protein. Again, plates were coated with 100 nM of either LRRC4B protein fragment #1 (amino acids 36-576 of SEQ ID NO: 2; SEQ ID NO: 5) or LRRC4B protein fragment #2 (amino acids 453-576 of SEQ ID NO: 2; SEQ ID NO: 7). Then, recombinant FAM19A5 protein (5 ng/ml for plates coated with LRRC4B fragment #1; and 1 ng/mL for plates coated with LRRC4B fragment #2) was added to the plates in combination with 20 nM of the different peptides described above. After incubating the plates at 37° C., the amount of FAM19A5 protein bound to the coated LRRC4B protein fragments was assessed using HRP-conjugated anti-FAM19A5 (1-65) antibody.
To identify the critical amino acid residues, multiple FB-20 peptide mutants were constructed, in which the individual residues of the core binding domain (i.e., YTYFTTVTVETLE; SEQ ID NO: 15) were substituted with alanine (A) or asparagine (N). Then, the ability of these FB-20 peptide mutants to inhibit the interaction between LRRC4B and FAM19A5 proteins was assessed, as described in Examples 3 and 4.

[3] = Table 9, deletion variants, 20 nM peptide, FAM19A5 5 ng/ml
[4] = Table 9, deletion variants, 20 nM peptide, FAM19A5 1 ng/mL
[5] = Table 10, alanine/asparagine mutants

Sequence of binding of FAM19A5 protein to full-length ectodomain of the LRRC4B protein (amino acids 36-576 of SEQ ID NO: 2) (Q7Z5A7 44-132): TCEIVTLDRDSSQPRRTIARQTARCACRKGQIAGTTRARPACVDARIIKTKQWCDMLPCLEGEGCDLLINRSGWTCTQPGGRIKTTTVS
Sequence of binding of FAM19A5 protein to LRRC4B (amino acids 453-576)-hFc (Q7Z5A7 44-132): as above

Molecule: GYTYATTVTVETLETQPGEE [FB-20[A4]]
- Inhibition rate (%) LRRC4B (amino acids 36-576)-hFc [1, 5]: 2.7%
- Inhibition rate (%) LRRC4B (amino acids 453-576)-hFc [2, 5]: 1.5%

Molecule: GYTYFTTVTVATLETQPGEE [FB-20[A10]]
- Inhibition rate (%) LRRC4B (amino acids 36-576)-hFc [1, 5]: 19.6%
- Inhibition rate (%) LRRC4B (amino acids 453-576)-hFc [2, 5]: 6.4%

Molecule: GYTYFTNVTVETLETQPGEE [FB-20[N6]]
- Inhibition rate (%) LRRC4B (amino acids 36-576)-hFc [1, 5]: −11.4%
- Inhibition rate (%) LRRC4B (amino acids 453-576)-hFc [2, 5]: −0.4%

Molecule: GYTYFTTNTVETLETQPGEE [FB-20[N7]]
- Inhibition rate (%) LRRC4B (amino acids 36-576)-hFc [1, 5]: 24.5%
- Inhibition rate (%) LRRC4B (amino acids 453-576)-hFc [2, 5]: 8.3%

Molecule: GYTYNTTVTVETLETQPGEE [FB-20[N4]]
- Inhibition rate (%) LRRC4B (amino acids 36-576)-hFc [1, 5]: −1.3%
- Inhibition rate (%) LRRC4B (amino acids 453-576)-hFc [2, 5]: 2.5%

Molecule: GNTYFTTVTVETLETQPGEE [FB-20[N1]]
- Inhibition rate (%) LRRC4B (amino acids 36-576)-hFc [1, 5]: 11.9%
- Inhibition rate (%) LRRC4B (amino acids 453-576)-hFc [2, 5]: 3.1%

Molecule: GYTYFTTVTVETAETQPGEE [FB-20[A12]]
- Inhibition rate (%) LRRC4B (amino acids 36-576)-hFc [1, 5]: 73.0%
- Inhibition rate (%) LRRC4B (amino acids 453-576)-hFc [2, 5]: 56.2%

The remaining lines, values ahead:

- inhibition of interaction between FAM19A5 and the coated LRRC4B protein fragments (in words) ([1]; 20 nM peptide): failed to significantly inhibit
- Inhibition rate (%) LRRC4B (amino acids 36-576)-hFc [1, 3]: 2.5%
- Inhibition rate (%) LRRC4B (amino acids 453-576)-hFc [2, 4]: −1.6%
Molecule: KNYFTTVTVETNKETQ [FB-m9dN]

- inhibition of interaction between FAM19A5 and the coated LRRC4B protein fragments (in words) ([1]; 20 nM peptide): substantially inhibited the interaction
- Inhibition rate (%) LRRC4B (amino acids 36-576)-hFc [1, 3]: 65.0%
- Inhibition rate (%) LRRC4B (amino acids 453-576)-hFc [2, 4]: 30.4%
Molecule: KNYTYFTTVTVETNKETQ [FB-m11dC]

- inhibition of interaction between FAM19A5 and the coated LRRC4B protein fragments (in words) ([1]; 20 nM peptide): failed to significantly inhibit
- Inhibition rate (%) LRRC4B (amino acids 36-576)-hFc [1, 3]: 4.4%
- Inhibition rate (%) LRRC4B (amino acids 453-576)-hFc [2, 4]: 0.4%
Molecule: KNYTYFTTVNKETQ [FB-m7dC]

- inhibition of interaction between FAM19A5 and the coated LRRC4B protein fragments (in words) ([1]; 20 nM peptide): failed to significantly inhibit
- Inhibition rate (%) LRRC4B (amino acids 36-576)-hFc [1, 3]: 16.8%
- Inhibition rate (%) LRRC4B (amino acids 453-576)-hFc [2, 4]: 2.7%
Molecule: KNYTYFTTVTVNKETQ [FB-m9dC]

- inhibition of interaction between FAM19A5 and the coated LRRC4B protein fragments (in words) ([1]; 20 nM peptide): failed to significantly inhibit
- Inhibition rate (%) LRRC4B (amino acids 36-576)-hFc [1, 3]: 3.3%
- Inhibition rate (%) LRRC4B (amino acids 453-576)-hFc [2, 4]: −1.1%
Molecule: KNFTTVTVETNKETQ [FB-m8dN]

- Inhibition rate (%) LRRC4B (amino acids 36-576)-hFc [1, 3]: 62.0%
- Inhibition rate (%) LRRC4B (amino acids 453-576)-hFc [2, 4]: 21.9%
Molecule: KNYTYFTTVTVENKETQ [FB-m10dC]

- Inhibition rate (%) LRRC4B (amino acids 36-576)-hFc [1, 5]: 74.1%
- Inhibition rate (%) LRRC4B (amino acids 453-576)-hFc [2, 5]: 55.6%
Molecule: GYTYFTTVTVENLETQPGEE [FB-20[N11]]

- inhibition of FAM19A5 binding to coated full-length LRRC4B ectodomain protein (in words) ([1]; increasing concentrations, FAM19A5 5 ng/mL, 100 nM coat): also able to inhibit the interaction
B1: LRRC4B (482-576): LRRC4B ectodomain fragment, amino acids 482-576 of SEQ ID NO: 2 (protein)
chain: GGYTYFTTVTVETLETQPGEEALQPRGTEKEPPGPTTDGVWGGGRPGDAAGPASSSTTAPAPRSSRPTEKAFTVPITDVTENALKDLDDVMKTTK
